Experimental findings from PMC4838878 are described below.

In assay [1] the target is Myc-Lphn3 with a C-terminal Avitag [mouse]. Nature of the assay: anti-GFP (mV) pull-down, quantified blot. The note with it: lysate of HEK293 cells co-transfected with FLAG-FLRT2; averaged over 3-4 independent experiments; parent: 1.1; read off a plot.
Assay [2] has as its target HA-Unc5D with a C-terminal Avitag [rat]. Put plainly: anti-GFP (mV) pull-down, quantified blot. The note with it: lysate of HEK293 cells co-transfected with FLAG-FLRT2; averaged over 3-4 independent experiments; parent: 1; read off a plot.

“HA-Unc5D mono-Venus fusion protein (HA-Unc5D-mV) mutant W89N; H91T [rat] / Myc-Lphn3 with a C-terminal Avitag [mouse] chain 1 W44N, chain 1 H46T”: in assay [1], the response (normalized intensity) came out at 0.35.

Regarding “Myc-Lphn3-mV mutant R292N; R294T [mouse] / HA-Unc5D with a C-terminal Avitag [rat] chain 1 R273N, chain 1 R275T”, the response (normalized intensity) in assay [2] came to 0.41.
